# T1: human FSTL1 (Homo sapiens, UniProt Q12841)
# T1 construct: AAA linker + 10xHis (C); made in house; host or cells: Expi293 (transient expression; purified from culture supernatant on HisPur Cobalt Resin)
# T1 sequence (Q12841 with tags, fused parts or gaps): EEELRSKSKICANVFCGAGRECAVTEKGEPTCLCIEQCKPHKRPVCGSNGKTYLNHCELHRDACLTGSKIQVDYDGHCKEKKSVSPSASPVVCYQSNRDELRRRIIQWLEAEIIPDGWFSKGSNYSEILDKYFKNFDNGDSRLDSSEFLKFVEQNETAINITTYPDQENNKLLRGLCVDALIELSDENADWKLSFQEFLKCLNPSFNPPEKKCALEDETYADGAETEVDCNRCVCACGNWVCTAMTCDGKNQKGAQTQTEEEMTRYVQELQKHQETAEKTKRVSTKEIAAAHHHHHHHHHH
# B1: #6-55: chicken-mouse chimeric anti-FSTL1 antibody clone; variable regions SEQ ID NO: 783 (light), 785 (heavy) (antibody, V domains shown)
# VH: AVTLDESGGGLQTPGGALSLVCKGSGFTFTSVTMQWVRQAPGKGLEWVASVCSGSSTYYAPAVKGRATISRDNGQSTVRLQLSNLRPEDTGTYYCAKIAGRARWSCTSAAYNIDAWGHGTEVIVSS
# VL: ASTQPSSVSAIPGETVKITCSGGGNNYGWYQQRSPGSAPVTVIYYNDNRPSNIPSRFSGSTSGSTSTLTITGVQADDEAIYYCGSWDSNTDSGIFGAGTTLTVL
# modifications: mouse constant regions
# Tests used:
# human FSTL1 = molecular target: T1, human FSTL1; test: ELISA binding activity of purified antibody against human FSTL1; conditions: FIG. 95B
# Method: The reactivity of the obtained antibody clones described above with FSTL1 was evaluated by ELISA under the following conditions.
# (Table 2 ELISA Conditions for Binding Activity Evaluation of Purified Antibody)
# Antibodies used: anti-dinitrophenyl (DNP) antibody (negative control), #5-2, #5-3, #5-8, #5-10, #5-43, #6-55, and #7-34
# FIGS. 96 and 97 show results of evaluating binding activity under the condition of Table 3 as to clones differing in screening and antibody purification timings.
# (Table 3 ELISA Conditions for Binding Activity Evaluation of Purified Antibody)
# [1] = tested on: Panc1, Panc1-snail+, MIAPaCa, MDA231, Hs294T; test: Proliferative capacity and invasive capacity of various human tumor cells (Example 26); assay type: cell-based; conditions: antibody 5 μg/ml; 3 days culture; Matrigel transwell 4 hours
# Method: Specifically, the influence of the anti-FSTL1 antibody on proliferative capacity and invasive capacity was studied using various human tumor cells, regardless of the presence or absence of the expression of Snail or FSTL1. Specifically, the anti-FSTL1 antibody (#6-55, 5 μg/ml) or a control antibody (aHema: mouse chimeric anti-hemagglutinin antibody, 5 μg/ml) was added to systems in which a pancreatic cancer cell line Panc1 (ATCC #CRL-1469), Panc1-snail+ which is a Panc1 cell line forced to express Snail, a pancreatic cancer cell line MIAPaCa (ATCC #CRL-1420), a bone metastatic breast cancer cell line MDA231 (ATCC #HTB-26), and a melanoma cell line Hs294T (ATCC #HTB-140) were each cultured at 1×10^5 cells. After culture for 3 days, the number of cells per culture system was counted to evaluate the proliferative capacity of the cells. The cells (5×10^4 cells) after the counting were further inoculated to Matrigel-coated transwell chamber (Corning Inc. #354480) and cultured for 4 hours. Then, the membranes were removed, and stained and fixed with Crystal Violet fixative. Then, the number of cells that permeated the membranes was counted under a microscope to evaluate the invasive capacity of the cells.
# [2] = tested on: mouse breast cancer 4T1 cells; test: In vivo, mouse breast cancer 4T1 cell-transplanted model (Example 21); conditions: BALB/c mice; intraperitoneal 10 mg/kg on days 4 and 7
# Method: (§1) Procedures and methods of the experiment were basically performed according to Examples 17 to 20 under substantially the same conditions as in the bone metastasis model experiments of Examples 17 to 20. Drug efficacy evaluation was conducted using mouse tumor models other than Snail-positive tumor bone metastasis models. The drug efficacy of the anti-FSTL1 antibody was evaluated using cancer-bearing models of BALB/c mice different in strain from the C57BL/6 mice used in the preceding tests. Changes were made as follows. • Day 0: transplantation of tumor cells (5×10^5 cells subcutaneously & 5×10^5 cells intravenously) Days 4 and 7: intraperitoneal administration of the antibody (10 mg/kg) • Day 14: drug efficacy evaluation (subcutaneous tumor growth)
# (§2) The tumor volumes of the mice were measured 4, 7, 11, and 14 days after tumor implantation.
# [3] = tested on: mouse breast cancer 4T1 cell-transplanted models; test: In vivo breast cancer model (Example 21); set-up: species or system BALB/c mice; conditions: intraperitoneal 10 mg/kg on days 4 and 7; day 14
# Method: as §1, §2
# [4] = tested on: human pancreatic cancer cell line Panc1; test: Action on Panc1 under FSTL1 stimulation (Example 26); assay type: cell-based; conditions: Panc1 stimulated with FSTL1 for 3 days, antibody 5 μg/ml; FIG. 114B
# Description: Specifically, the influence of the anti-FSTL1 antibody on proliferative capacity and invasive capacity was studied using various human tumor cells, regardless of the presence or absence of the expression of Snail or FSTL1. […] After culture for 3 days, the number of cells per culture system was counted to evaluate the proliferative capacity of the cells. […] Then, the number of cells that permeated the membranes was counted under a microscope to evaluate the invasive capacity of the cells.
# Next, in order to examine how surrounding tumor cells were changed in a cancer microenvironment by receiving FSTL1 produced by Snail/FSTL1-expressing cells, and how the anti-FSTL1 antibody acts thereon, a human pancreatic cancer cell line Panc1 confirmed to express Snail or FSTL1 only slightly was stimulated with FSTL1 for 3 days. The anti-FSTL1 antibody (#6-55, 5 μg/ml) or a control antibody (aHema, 5 μg/ml) was added to this culture system, and subsequent change in cell function was analyzed in the same way as in the preceding paragraph. […]
molecule,measurement,setting,value
B1,binding activity against human FSTL1,human FSTL1,specific and equivalently strong binding activity
same,proliferative capacity and invasive capacity of tumor cells,[1],"both proliferative capacity and invasive capacity were strongly suppressed, particularly, in a highly metastatic tumor cell line highly expressing Snail"
same,growth of 4T1 subcutaneous tumor,[2],significantly suppressed
same,growth of 4T1 subcutaneous tumor,[3],significantly suppressed
same,cell growth,[4],reduced
same,enhancement of invasive capacity by FSTL1,[4],canceled
